In assay [1] the target is T1, Endogenous human OSM (neutrophil-derived) (human, UniProt P13725 26-221, limits assumed).
T1 construct: Native OSM generated from GM-CSF stimulation of healthy human neutrophils; also called native OSM; endogenous OSM
T1 sequence: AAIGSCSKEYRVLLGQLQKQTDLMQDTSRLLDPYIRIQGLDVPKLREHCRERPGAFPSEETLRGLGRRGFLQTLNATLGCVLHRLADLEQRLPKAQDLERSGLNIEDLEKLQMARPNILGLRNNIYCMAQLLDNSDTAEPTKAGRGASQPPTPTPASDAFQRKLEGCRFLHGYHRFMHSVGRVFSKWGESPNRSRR
Briefly: gp130 ELISA with endogenous neutrophil-derived human OSM.

Assay [2] addresses T2, Cynomolgus OSM (cynomolgus, UniProt A0A2K5VPC6 26-221).
T2 construct: also called Cyno OSM; cynomolgus macaque OSM
T2 sequence: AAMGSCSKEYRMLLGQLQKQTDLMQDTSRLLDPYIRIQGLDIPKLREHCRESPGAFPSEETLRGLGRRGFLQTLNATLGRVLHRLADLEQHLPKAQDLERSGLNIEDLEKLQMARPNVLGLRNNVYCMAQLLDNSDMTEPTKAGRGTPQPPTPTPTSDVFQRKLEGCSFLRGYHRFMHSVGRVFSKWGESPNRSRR
Briefly: BIAcore kinetics.

In assay [3] the target is T3, Human OSM (human, UniProt P13725 26-221).
T3 construct: Recombinant human OSM; also called hOSM; human Oncostatin M
T3 sequence: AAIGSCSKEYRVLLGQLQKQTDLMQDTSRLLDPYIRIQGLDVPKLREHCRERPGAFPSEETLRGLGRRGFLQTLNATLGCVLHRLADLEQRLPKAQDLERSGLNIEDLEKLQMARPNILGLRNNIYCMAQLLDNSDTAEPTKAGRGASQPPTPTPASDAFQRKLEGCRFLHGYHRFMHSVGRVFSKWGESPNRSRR
Briefly: BIAcore kinetics.

Assay [4] has as its target T2, Cynomolgus OSM. Briefly: human gp130 ELISA, inhibition of OSM binding to gp130.
For assay [5], the target named is T3, Human OSM. The description is as above.
The target in assay [6] is T2, Cynomolgus OSM. The description is as above. The source holds these as a separate data set.
The target in assay [7] is T3, Human OSM. The description is as above. This is another data set of the same source.
Assay [8] addresses T2, Cynomolgus OSM. Put plainly: cell-based or functional assay.
Assay [9] concerns the target T3, Human OSM. Briefly: cell-based or functional assay.
Assay [10] addresses T2, Cynomolgus OSM. Put plainly: BIAcore kinetics. The source holds these as a separate data set.
Assay [11] deals with T3, Human OSM. Briefly: BIAcore kinetics. This is another data set of the same source.
Assay [12] deals with T3, Human OSM. Briefly: cell-based or functional assay. The source holds these as a separate data set.
The target in assay [13] is T2, Cynomolgus OSM. Put plainly: cell-based or functional assay. The source holds these as a separate data set.
The target of assay [14] is T3, Human OSM. Briefly: cell-based or functional assay. The source holds these as a separate data set.
The target of assay [15] is T3, Human OSM. Put plainly: direct ELISA, human OSM coated at 1 µg/ml, detection with anti-human IgG. On the procedure: Both the 10G8 and 9G2 chimaeras successfully bound to human OSM, to a greater extent than 15E10chimera (15E10c) (FIG. 11). This was a direct ELISA where human OSM was coated at 1 μg/ml and bound antibodies detected using anti-human IgG.
In assay [16] the target is T2, Cynomolgus OSM. Put plainly: cell-based or functional assay. The source holds these as a separate data set.
The target of assay [17] is T3, Human OSM. Put plainly: cell-based or functional assay. This is another data set of the same source.
The next assay deals with Marmoset OSM (marmoset). Briefly: cell-based or functional assay.
Assay [18] deals with T2, Cynomolgus OSM. Briefly: BIAcore kinetics, purified antibody.
The target in assay [19] is T3, Human OSM. Briefly: BIAcore kinetics, purified antibody.
Assay [20] has as its target T1, Endogenous human OSM …. Briefly: gp130 ELISA with endogenous neutrophil-derived human OSM. The source holds these as a separate data set.
In assay [21] the target is T2, Cynomolgus OSM. Put plainly: cell-based or functional assay. This is another data set of the same source.
Assay [22] has as its target T3, Human OSM. Briefly: cell-based or functional assay. The source holds these as a separate data set.
Assay [23] deals with T2, Cynomolgus OSM. Briefly: BIAcore kinetics, purified antibody. The source holds these as a separate data set.
The target in assay [24] is T3, Human OSM. Briefly: BIAcore kinetics, purified antibody. The source holds these as a separate data set.
For assay [25], the target named is T3, Human OSM. Put plainly: BIAcore kinetics, transfection supernatant.
Assay [26] deals with T2, Cynomolgus OSM. Briefly: BIAcore kinetics, purified antibody. This is another data set of the same source.
For assay [27], the target named is T3, Human OSM. Put plainly: BIAcore kinetics, purified antibody. This is another data set of the same source.
Assay [28] has as its target T2, Cynomolgus OSM. Briefly: BIAcore kinetics, transfection supernatant.
Assay [29] concerns the target T3, Human OSM. Briefly: BIAcore kinetics, transfection supernatant. This is another data set of the same source.
Assay [30] concerns the target T2, Cynomolgus OSM. Put plainly: cell-based or functional assay. The source holds these as a separate data set.
Assay [31] has as its target T3, Human OSM. Put plainly: cell-based or functional assay. The source holds these as a separate data set.

We go through three molecules from patent US20130251724A1 (GlaxoSmithKline, published 2013).

Values joined by “and” are separate entries in the source; they are usually repeats but may differ in a detail not shown here. Equal entries are not always repeated. Where two headings read alike, the source gives them in different places.

B1: 9G2, murine anti-OSM mAb (antibody, V domains shown)
VH: EVQLVESGGGLVEPGGSLKLSCAASGFTFSNYAMSWVRQTPEKRLEWVATISDGGSFTYYLDNVKGRFTISRDNAKNNLYLQMSHLKSDDTAMYYCARDVGHTTFWYFDVWGTGTTVTVSS
VL: DIVLTQSPVFLVISLGQRATISCRASKSVSASGYNFMHWYQQKPGQPPKVLIKYASNLESGVPARFSGSGSGTDFTLNIHPVEEEDAVTYYCQHSREFPFTFGGGTKLEIK
notes: Mouse hybridoma mAb; also called 9G2/C1; 9G2.C1
For the molecule B1, the IC50 is 0.02 µg/mL and 0.133 nM in assay [1]; 0.049 µg/mL and 0.327 nM in the assay with Cynomolgus OSM [4]; 0.038 µg/mL and 0.253 nM with Human OSM [5]; 0.03 µg/mL and 0.2 nM with Cynomolgus OSM [6]; 0.16 µg/mL and 1.1 nM in the assay with Human OSM [7]. The dissociation constant (Kd) in the assay with Cynomolgus OSM [2] came to 0.75 nM; in the assay with Human OSM [3] it was 1.6 nM; with Cynomolgus OSM [10], 0.775 nM; with Human OSM [11], 1.6 nM. Moreover, the “KB cell neutralisation assay, mean IC50” value was 100 pM and 0.015 µg/ml with Cynomolgus OSM [8]; 0.018 µg/ml and 120 pM in the assay with Human OSM [9]; 0.046 µg/ml and 307 pM with Cynomolgus OSM [13]; 0.163 µg/ml and 1.1 nM with Human OSM [14]. The koff in the assay with Cynomolgus OSM [10] stood at 4.76e-05 s⁻¹; with Human OSM [11] it was 0.000121 s⁻¹. For the same molecule, the on-rate constant (kon) with Cynomolgus OSM [10] is 61400 M⁻¹ s⁻¹; with Human OSM [11], 75200 M⁻¹ s⁻¹. The “IC50 (read off the curve); IL-6 release from KB cells stimulated with human OSM, 25% human AB serum” value with Human OSM [12] was roughly 0.03 µg/mL.

B2: 9G2 chimaera (antibody, human IgG1, kappa, V domains shown)
VH: EVQLVESGGGLVEPGGSLKLSCAASGFTFSNYAMSWVRQTPEKRLEWVATISDGGSFTYYLDNVKGRFTISRDNAKNNLYLQMSHLKSDDTAMYYCARDVGHTTFWYFDVWGTGTLVTVSS
VL: DIVLTQSPVFLVISLGQRATISCRASKSVSASGYNFMHWYQQKPGQPPKVLIKYASNLESGVPARFSGSGSGTDFTLNIHPVEEEDAVTYYCQHSREFPFTFGGGTKLEIKR
notes: Mouse V regions on human gamma 1 wild type and human kappa constant regions; also called 9G2 chimera
For the molecule B2, in the assay with Human OSM [15], the “EC50 (read off the curve)” value was roughly 0.4 nM. For the same molecule, the IC50 is 0.017 µg/mL and 0.113 nM in assay [1]; 0.028 µg/mL and 0.187 nM in the assay with Cynomolgus OSM [4]; 0.078 µg/mL and 0.52 nM with Human OSM [5]. The dissociation constant (Kd) is 0.787 nM in the assay with Cynomolgus OSM [10] and 1.33 nM with Human OSM [11]. Also, the dissociation rate constant (koff) is 9.99e-05 s⁻¹ with Cynomolgus OSM [10] and 0.000168 s⁻¹ in the assay with Human OSM [11]. The on-rate constant (kon) with Cynomolgus OSM [10] was 127000 M⁻¹ s⁻¹; in the assay with Human OSM [11], 126000 M⁻¹ s⁻¹. Also, the “KB cell neutralisation assay, mean IC50” value is 0.031 µg/ml and 207 pM with Cynomolgus OSM [13]; 0.231 µg/ml and 1.5 nM in the assay with Human OSM [14].

B3: Humanised 10G8 H0L1 (antibody, human IgG1, kappa, V domains shown)
VH: EVQLVESGGGLVQPGGSLRLSCAASGFTFSNYAMSWVRQAPGKGLEWVATISDGGSFTYYLDNVRGRFTISRDNAKNSLYLQMNSLRAEDTAVYYCARDVGHTTFWYFDVWGRGTLVTVSS
VL: DIVMTQSPDSLAVSLGERATINCRASKSVSAAGYNFMHWYQQKPGQPPKVLIYYASNLESGVPDRFSGSGSGTDFTLTISSLQAEDVAVYYCLHSREFPFTFGGGTKVEIKR
notes: IgG1 kappa; mature H0 heavy chain and mature L1 light chain; also called Humanised 10G8 H0L1 parent
For the molecule B3, the “KB cell neutralisation assay, mean IC50” value in the assay with Cynomolgus OSM [16] is 0.0014 µg/ml and 9 pM; with Human OSM [17], 0.0028 µg/ml and 19 pM; with Marmoset OSM, 0.0017 µg/ml and 11 pM; with Cynomolgus OSM [21], 0.007 µg/ml and 47 pM; with Human OSM [22], 0.009 µg/ml and 60 pM; in the assay with Cynomolgus OSM [30], 0.007 µg/ml and 21 pM. In addition, in the assay with Human OSM [31], the “KB cell neutralisation assay, mean IC50” value was 0.015 µg/ml and 102 pM. The Kd with Cynomolgus OSM [18] amounted to 0.251 nM; with Human OSM [19] it was 0.355 nM; with Cynomolgus OSM [23], 0.195 nM; with Human OSM [24], 0.125 nM; with Human OSM [25] it was 0.25 nM; with Cynomolgus OSM [26], 0.341 nM. Further, the Kd in the assay with Human OSM [27] came to 0.445 nM; with Cynomolgus OSM [28], 0.301 nM; with Human OSM [29], 0.461 nM. For the same molecule, the off-rate (koff) with Cynomolgus OSM [18] was determined as 0.000107 s⁻¹; with Human OSM [19], 0.000137 s⁻¹; with Cynomolgus OSM [23] it was 8.31e-05 s⁻¹; in the assay with Human OSM [24], 8.9e-05 s⁻¹; with Human OSM [25], 9.95e-05 s⁻¹; with Cynomolgus OSM [26], 0.000115 s⁻¹. Also, the results for the koff in the assay with Human OSM [27], with Cynomolgus OSM [28] and with Human OSM [29] were 0.000151 s⁻¹, 0.000104 s⁻¹ and 0.000153 s⁻¹, respectively. The on-rate (kon) in the assay with Cynomolgus OSM [18] came out at 426000 M⁻¹ s⁻¹; with Human OSM [19], 387000 M⁻¹ s⁻¹; with Cynomolgus OSM [23] it was 427000 M⁻¹ s⁻¹; with Human OSM [24], 712000 M⁻¹ s⁻¹; in the assay with Human OSM [25], 398000 M⁻¹ s⁻¹; in the assay with Cynomolgus OSM [26], 338000 M⁻¹ s⁻¹. For the same molecule, the results for the association rate constant (kon) with Human OSM [27], with Cynomolgus OSM [28] and with Human OSM [29] were 340000 M⁻¹ s⁻¹, 345000 M⁻¹ s⁻¹ and 332000 M⁻¹ s⁻¹, respectively. In assay [20], the IC50 is 0.0058 µg/mL and 0.039 nM.
